Reference: KR20150001391A
Each block holds one binder with its values, some of them ahead of it.

Legend:
[1] = target: M13 박테리오파지에서 전시되는 스트렙타비딘(streptavidin); assay: fluorescence ELISA; plate coated with streptavidin-displaying M13 phage; fusion protein at 10, 50, 100 μg/ml; ex 554 nm / em 581 nm; reference is biotin-bound RFP
[2] = target: M13 박테리오파지에서 전시되는 스트렙타비딘(streptavidin); assay: fluorescence ELISA; plate coated with streptavidin-displaying M13 phage; fusion protein at 10, 50, 100 μg/ml; ex 395 nm / em 509 nm; reference is biotin-bound GFP

B1: (2B12+RFP) (protein, part only; not given: linker, RFP, His tag, part only)
chain, part: ESGGGSVQVGESLRLACTASEFTFDDTDVGWYRQAPGNECELVSSINSDGGTYYTDSVKGRFTISLDNGKNTVYLQMDSLKPEDTAVYYCVADAKVKAQALGTLLCRILGNWGQGTQVTVSS
fold fluorescence against biotin-bound RFP [1]: 2 배 (fold)

B2: (2E9+RFP) (protein, part only; not given: linker, RFP, His tag, part only)
chain, part: ESGGGSVQAGGSLRLSCTASGFTFADSDMGWYRQAPGKERERVAAIDSDGRTSYADSVKGRFTISKDNAKNTLYLQMNSLKPEDTAMYYCAAGVPTYDSSWCSRDYWGKGTQVTVSS
fold fluorescence against biotin-bound RFP [1]: 2 배 (fold)

B3: (53A1+RFP) (protein, part only; not given: linker, RFP, His tag, part only)
chain, part: B1 chain, part
fold fluorescence against biotin-bound RFP [1]: 2 배 (fold)

B4: (2B12+GFP) (protein, part only; not given: linker, GFP, His tag, part only)
chain, part: B1 chain, part
fold fluorescence against biotin-bound GFP [2]: 2 배 (fold)

Next, values leading:

fold fluorescence against biotin-bound GFP [2]: 2 배 (fold)
B5: (2E9+GFP) (protein, part only; not given: linker, GFP, His tag, part only)
chain, part: B2 chain, part

fold fluorescence against biotin-bound GFP [2]: 2 배 (fold)
B6: (53A1+GFP) (protein, part only; not given: linker, GFP, His tag, part only)
chain, part: B1 chain, part
